Data published in the RNAGym collection of RNA variant scans (doi:10.7554/elife.80360).

B1: HDV Ribozyme (parent)
chain: GGCCGGCAUGGUCCCAGCCUCCUCGCUGGCGCCGGCUGGGCAACAUUCCGAGGGGACCGUCCCCUCGGUAAUGGCGAAUGGGACCCA

Variants of: B1
Test: self-cleavage, relative activity (ratio to wild type); higher = more cleavage; co-transcriptional

Variant | self-cleavage
GGCCGGCAUGGUCCCAGCCUCCUCGAUGGCGCCGGCUGGGCAACAUGCCGAGGGGACCGUCCCCUCGGUAAUGGCGAAUGGGACCCA [C26A U47G] | 0.923
GGCCGGCAUGGUCCCAGCCUCCUCGAUGGCGCCGGCUGGGCAACAUUCCGAGGGGACCGUCCCCCCGGUAAUGGCGAAUGGGACCCA [C26A U65C] | 1.21
GGCCGGCAUGGUCCCAGCCUCCUCGAUGGCGCCGGCUGGGCAACAUUCCGAGGGGACCGUCCCCUCGGUAACGGCGAAUGGGACCCA [C26A U72C] | 0.867
GGCCGGCAUGGUCCCAGCCUCCUCGGUGGCGCCGGCUGGGCCACAUUCCGAGGGGACCGUCCCCUCGGUAAUGGCGAAUGGGACCCA [C26G A42C] | 0.158
GGCCGGCAUGGUCCCAGCCUCCUCGGUGGCGCCGGCUGGGCGACAUUCCGAGGGGACCGUCCCCUCGGUAAUGGCGAAUGGGACCCA [C26G A42G] | 0.639
GGCCGGCAUGGUCCCAGCCUCCUCGGUGGCGCCGGCUGGGCAGCAUUCCGAGGGGACCGUCCCCUCGGUAAUGGCGAAUGGGACCCA [C26G A43G] | 0.437
GGCCGGCAUGGUCCCAGCCUCCUCGGUGGCGCCGGCUGGGCAACCUUCCGAGGGGACCGUCCCCUCGGUAAUGGCGAAUGGGACCCA [C26G A45C] | 0.364
GGCCGGCAUGGUCCCAGCCUCCUCGGUGGCGCCGGCUGGGCAACGUUCCGAGGGGACCGUCCCCUCGGUAAUGGCGAAUGGGACCCA [C26G A45G] | 1.04
GGCCGGCAUGGUCCCAGCCUCCUCGGUGGCGCCGGCUGGGCAACUUUCCGAGGGGACCGUCCCCUCGGUAAUGGCGAAUGGGACCCA [C26G A45U] | 0.895
GGCCGGCAUGGUCCCAGCCUCCUCGGUGGCGCCGGCUGGGCAACAUUCCGCGGGGACCGUCCCCUCGGUAAUGGCGAAUGGGACCCA [C26G A51C] | 1.13
GGCCGGCAUGGUCCCAGCCUCCUCGGUGGCGCCGGCUGGGCAACAUUCCGAGGGGGCCGUCCCCUCGGUAAUGGCGAAUGGGACCCA [C26G A56G] | 0.795
GGCCGGCAUGGUCCCAGCCUCCUCGGUGGCGCCGGCUGGGCAACAUUCCGAGGGGACCGUCCCCUCGGUUAUGGCGAAUGGGACCCA [C26G A70U] | 0.875
GGCCGGCAUGGUCCCAGCCUCCUCGGUGGCGCCGGCUGGGCAACAUUCCGAGGGGACCGUCCCCUCGGUAAUGGCGACUGGGACCCA [C26G A78C] | 0
GGCCGGCAUGGUCCCAGCCUCCUCGGUGGCGCCGGCUGGGCAACAUUCCGAGGGGACCGUCCCCUCGGUAAUGGCGAAUGGGGCCCA [C26G A83G] | 0.851
GGCCGGCAUGGUCCCAGCCUCCUCGGUGGCGCCGGCUGGGCAACAUUCCGAGGGGACCGUCCCCUCGGUAAUGGCGAAUGGGUCCCA [C26G A83U] | 0.917
GGCCGGCAUGGUCCCAGCCUCCUCGGUGGCGCCGGCUGGGCAACAUUCCGAGGGGACCGUCCCCUCGGUAAUGGCGAAUGGGACCCC [C26G A87C] | 1.02
GGCCGGCAUGGUCCCAGCCUCCUCGGUGGCGCCGGCUGGGCAACAUUCCGAGGGGACCGUCCCCUCGGUAAUGGCGAAUGGGACCCG [C26G A87G] | 1.07
GGCCGGCAUGGUCCCAGCCUCCUCGGUGGGGCCGGCUGGGCAACAUUCCGAGGGGACCGUCCCCUCGGUAAUGGCGAAUGGGACCCA [C26G C30G] | 0
GGCCGGCAUGGUCCCAGCCUCCUCGGUGGCGCAGGCUGGGCAACAUUCCGAGGGGACCGUCCCCUCGGUAAUGGCGAAUGGGACCCA [C26G C33A] | 0.298
GGCCGGCAUGGUCCCAGCCUCCUCGGUGGCGCCGGCUGGGCAAUAUUCCGAGGGGACCGUCCCCUCGGUAAUGGCGAAUGGGACCCA [C26G C44U] | 1.04
GGCCGGCAUGGUCCCAGCCUCCUCGGUGGCGCCGGCUGGGCAACAUUCCGAGGGGAUCGUCCCCUCGGUAAUGGCGAAUGGGACCCA [C26G C57U] | 1.02
GGCCGGCAUGGUCCCAGCCUCCUCGGUGGCGCCGGCUGGGCAACAUUCCGAGGGGACUGUCCCCUCGGUAAUGGCGAAUGGGACCCA [C26G C58U] | 0.931

Variant | self-cleavage
GGCCGGCAUGGUCCCAGCCUCCUCGGUGGCGCCGGCUGGGCAACAUUCCGAGGGGACCGUGCCCUCGGUAAUGGCGAAUGGGACCCA [C26G C61G] | 0.811
GGCCGGCAUGGUCCCAGCCUCCUCGGUGGCGCCGGCUGGGCAACAUUCCGAGGGGACCGUUCCCUCGGUAAUGGCGAAUGGGACCCA [C26G C61U] | 1.06
GGCCGGCAUGGUCCCAGCCUCCUCGGUGGCGCCGGCUGGGCAACAUUCCGAGGGGACCGUCACCUCGGUAAUGGCGAAUGGGACCCA [C26G C62A] | 0.985
GGCCGGCAUGGUCCCAGCCUCCUCGGUGGCGCCGGCUGGGCAACAUUCCGAGGGGACCGUCUCCUCGGUAAUGGCGAAUGGGACCCA [C26G C62U] | 1.09
GGCCGGCAUGGUCCCAGCCUCCUCGGUGGCGCCGGCUGGGCAACAUUCCGAGGGGACCGUCCCCUAGGUAAUGGCGAAUGGGACCCA [C26G C66A] | 1.05
GGCCGGCAUGGUCCCAGCCUCCUCGGUGGCGCCGGCUGGGCAACAUUCCGAGGGGACCGUCCCCUCGGUAAUGGCGAAUGGGAUCCA [C26G C84U] | 0.696
GGCCGGCAUGGUCCCAGCCUCCUCGGUGGCGCCGGCUGGGCAACAUUCCGAGGGGACCGUCCCCUCGGUAAUGGCGAAUGGGACUCA [C26G C85U] | 0.956
GGCCGGCAUGGUCCCAGCCUCCUCGGUAGCGCCGGCUGGGCAACAUUCCGAGGGGACCGUCCCCUCGGUAAUGGCGAAUGGGACCCA [C26G G28A] | 0.0449
GGCCGGCAUGGUCCCAGCCUCCUCGGUGCCGCCGGCUGGGCAACAUUCCGAGGGGACCGUCCCCUCGGUAAUGGCGAAUGGGACCCA [C26G G29C] | 0.0504
GGCCGGCAUGGUCCCAGCCUCCUCGGUGGCACCGGCUGGGCAACAUUCCGAGGGGACCGUCCCCUCGGUAAUGGCGAAUGGGACCCA [C26G G31A] | 0.744
GGCCGGCAUGGUCCCAGCCUCCUCGGUGGCCCCGGCUGGGCAACAUUCCGAGGGGACCGUCCCCUCGGUAAUGGCGAAUGGGACCCA [C26G G31C] | 0.284
GGCCGGCAUGGUCCCAGCCUCCUCGGUGGCUCCGGCUGGGCAACAUUCCGAGGGGACCGUCCCCUCGGUAAUGGCGAAUGGGACCCA [C26G G31U] | 0.48
GGCCGGCAUGGUCCCAGCCUCCUCGGUGGCGCCCGCUGGGCAACAUUCCGAGGGGACCGUCCCCUCGGUAAUGGCGAAUGGGACCCA [C26G G34C] | 0
GGCCGGCAUGGUCCCAGCCUCCUCGGUGGCGCCGGCUAGGCAACAUUCCGAGGGGACCGUCCCCUCGGUAAUGGCGAAUGGGACCCA [C26G G38A] | 0.0978
GGCCGGCAUGGUCCCAGCCUCCUCGGUGGCGCCGGCUGAGCAACAUUCCGAGGGGACCGUCCCCUCGGUAAUGGCGAAUGGGACCCA [C26G G39A] | 0.18
GGCCGGCAUGGUCCCAGCCUCCUCGGUGGCGCCGGCUGGGCAACAUUCCAAGGGGACCGUCCCCUCGGUAAUGGCGAAUGGGACCCA [C26G G50A] | 0.923
GGCCGGCAUGGUCCCAGCCUCCUCGGUGGCGCCGGCUGGGCAACAUUCCGAGUGGACCGUCCCCUCGGUAAUGGCGAAUGGGACCCA [C26G G53U] | 0.812
GGCCGGCAUGGUCCCAGCCUCCUCGGUGGCGCCGGCUGGGCAACAUUCCGAGGAGACCGUCCCCUCGGUAAUGGCGAAUGGGACCCA [C26G G54A] | 0.655
GGCCGGCAUGGUCCCAGCCUCCUCGGUGGCGCCGGCUGGGCAACAUUCCGAGGGCACCGUCCCCUCGGUAAUGGCGAAUGGGACCCA [C26G G55C] | 1.04
GGCCGGCAUGGUCCCAGCCUCCUCGGUGGCGCCGGCUGGGCAACAUUCCGAGGGGACCGUCCCCUCCGUAAUGGCGAAUGGGACCCA [C26G G67C] | 0.8
GGCCGGCAUGGUCCCAGCCUCCUCGGUGGCGCCGGCUGGGCAACAUUCCGAGGGGACCGUCCCCUCGGUAAUGACGAAUGGGACCCA [C26G G74A] | 0.441
GGCCGGCAUGGUCCCAGCCUCCUCGGUGGCGCCGGCUGGGCAACAUUCCGAGGGGACCGUCCCCUCGGUAAUGCCGAAUGGGACCCA [C26G G74C] | 0.0573

Variant | self-cleavage
GGCCGGCAUGGUCCCAGCCUCCUCGGUGGCGCCGGCUGGGCAACAUUCCGAGGGGACCGUCCCCUCGGUAAUGGCUAAUGGGACCCA [C26G G76U] | 0.916
GGCCGGCAUGGUCCCAGCCUCCUCGGUGGCGCCGGCUGGGCAACAUUCCGAGGGGACCGUCCCCUCGGUAAUGGCGAAUCGGACCCA [C26G G80C] | 0.212
GGCCGGCAUGGUCCCAGCCUCCUCGGUGGCGCCGGCUGGGCAACAUUCCGAGGGGACCGUCCCCUCGGUAAUGGCGAAUGUGACCCA [C26G G81U] | 0.567
GGCCGGCAUGGUCCCAGCCUCCUCGGUGGCGCCGGCUGGGCAACAUUCCGAGGGGACCGUCCCCUCGGUAAUGGCGAAUGGUACCCA [C26G G82U] | 0.604
GGCCGGCAUGGUCCCAGCCUCCUCGGUGGCGCCGGCCGGGCAACAUUCCGAGGGGACCGUCCCCUCGGUAAUGGCGAAUGGGACCCA [C26G U37C] | 1.01
GGCCGGCAUGGUCCCAGCCUCCUCGGUGGCGCCGGCGGGGCAACAUUCCGAGGGGACCGUCCCCUCGGUAAUGGCGAAUGGGACCCA [C26G U37G] | 0.111
GGCCGGCAUGGUCCCAGCCUCCUCGGUGGCGCCGGCUGGGCAACAGUCCGAGGGGACCGUCCCCUCGGUAAUGGCGAAUGGGACCCA [C26G U46G] | 0.554
GGCCGGCAUGGUCCCAGCCUCCUCGGUGGCGCCGGCUGGGCAACAUUCCGAGGGGACCGGCCCCUCGGUAAUGGCGAAUGGGACCCA [C26G U60G] | 0.525
GGCCGGCAUGGUCCCAGCCUCCUCGGUGGCGCCGGCUGGGCAACAUUCCGAGGGGACCGUCCCCCCGGUAAUGGCGAAUGGGACCCA [C26G U65C] | 1.16
GGCCGGCAUGGUCCCAGCCUCCUCGGUGGCGCCGGCUGGGCAACAUUCCGAGGGGACCGUCCCCUCGGUAAAGGCGAAUGGGACCCA [C26G U72A] | 0.615
GGCCGGCAUGGUCCCAGCCUCCUCGGUGGCGCCGGCUGGGCAACAUUCCGAGGGGACCGUCCCCUCGGUAAGGGCGAAUGGGACCCA [C26G U72G] | 0.755
GGCCGGCAUGGUCCCAGCCUCCUCGUUGGCGCCGGCUGGGCCACAUUCCGAGGGGACCGUCCCCUCGGUAAUGGCGAAUGGGACCCA [C26U A42C] | 0.308
GGCCGGCAUGGUCCCAGCCUCCUCGUUGGCGCCGGCUGGGCACCAUUCCGAGGGGACCGUCCCCUCGGUAAUGGCGAAUGGGACCCA [C26U A43C] | 0.831
GGCCGGCAUGGUCCCAGCCUCCUCGUUGGCGCCGGCUGGGCAACUUUCCGAGGGGACCGUCCCCUCGGUAAUGGCGAAUGGGACCCA [C26U A45U] | 0.77
GGCCGGCAUGGUCCCAGCCUCCUCGUUGGCGCCGGCUGGGCAACAUUCCGAGGGGGCCGUCCCCUCGGUAAUGGCGAAUGGGACCCA [C26U A56G] | 1.08
GGCCGGCAUGGUCCCAGCCUCCUCGUUGGCGCCGGCUGGGCAACAUUCCGAGGGGACCGUCCCCUCGGUUAUGGCGAAUGGGACCCA [C26U A70U] | 1.01
GGCCGGCAUGGUCCCAGCCUCCUCGUUGGCGCCGGCUGGGCAACAUUCCGAGGGGACCGUCCCCUCGGUAAUGGCGCAUGGGACCCA [C26U A77C] | 0.883
GGCCGGCAUGGUCCCAGCCUCCUCGUUGGCGCCGGCUGGGCAACAUUCCGAGGGGACCGUCCCCUCGGUAAUGGCGACUGGGACCCA [C26U A78C] | 0.35
GGCCGGCAUGGUCCCAGCCUCCUCGUUGGCGCCGGCUGGGCAACAUUCCGAGGGGACCGUCCCCUCGGUAAUGGCGAAUGGGGCCCA [C26U A83G] | 0.776
GGCCGGCAUGGUCCCAGCCUCCUCGUUGGCGCCGGCUGGGCAACAUUCCGAGGGGACCGUCCCCUCGGUAAUGGCGAAUGGGUCCCA [C26U A83U] | 0.79
